The supplement of paper PMC9170038

Test system: MS2 coat protein
Assay: apparent KD of MS2 coat protein; higher = weaker reporter binding
Conditions: Eterna round: R107
Description: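 RNA-MaP round R107: designed RNA switches with theophylline, tryptophan, arginine or FMN aptamers are transcribed on-chip within common flanks. They are titrated with SNAP-549-labelled MS2 coat protein in RNA-MaP buffer (100 mM Tris pH 7.5, 80 mM KCl, 4 mM MgCl2), without ligand or with the indicated ligand. Median apparent KD per design.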

[1] = input ligand: theophylline 20 uM
[2] = input ligand: theophylline 2 mM
[3] = input ligand: tryptophan 2.4 mM

Row | Sequence | apparent KD of MS2 coat protein (input ligand: arginine 13.2 mM) [µM] | apparent KD of MS2 coat protein (input ligand: none) [µM] | apparent KD of MS2 coat protein [1] [µM] | apparent KD of MS2 coat protein [2] [µM] | apparent KD of MS2 coat protein [3] [µM]
1 | AAGUGGCACGGAAGGAGCGAGUUUACCUAGAUAACAUGAGGAUCACCCAUGUAUAAUGGGACUCAGGUAGGUCGCCGUUGUCACU [#29 Same State - Arginine B] | 0.0249 | 0.0348 | 0.051 | 0.0328 | 0.0307
2 | AAUAAAUCACAUGAGGAUCACCCAUGUGAUACCAGCCUGGAAACAGGCCCUUGGCAGCACAUGAGGAUCACCCAUGUGCUAAAUA [TheoAX 1 #DoubleMS2 #OpenEnded] | 0.00679 |  | 0.00881 |  | 0.00843
3 | AAUAACAUGAGGAUCACCCAUGUAAAAGAUACCAGAGUGAUGAUCCUCCCUUGGCAGCUUAAUAACGCUAUUGGAAACAAUAGCG [Mat - Same State Theophlline A - Mod of Eli - D7] | 0.0349 |  | 0.158 |  | 0.059
4 | AAUAACAUGAGGAUCACCCAUGUAAAAGAUACCAGAUGCAUGAUGAUCCCUUGGCAGCUUAACGCUGAUUGAUUACAAUCAGCGA | 0.0365 |  | 0.128 |  | 0.0264
5 | AAUACAUGAGGAUCACCCAUGUAAGCUGAAGGAGCGCUGGAAACAGCAGGUAGGUCGCAGCUGCGACCUUGGUGAUCUAGGUCGC [(M1)-(M2)-(Arg1)-(Arg2)-(A)'-(M)'-(A)''_Design7] | 0.0175 | 0.0366 | 0.0358 | 0.0467 | 0.0243
6 | AAUACCGGAUCGGCCGCCACUGGUUGGCCCUGUGUACAUGAGGAUCACCCAUGUCCAUCCCAAACCAGGACCGGGAUCUUUGUGC [Ededmate] | 0.0117 |  | 0.0158 | 0.0137 | 
7 | AAUAGCUUGAGGAUCACCCAAGUAAAAGAUACCAGAGUGAUGAUCCUCCCUUGGCAGCUUAACGCUGAUUGAUUACAAUCAGCGA | 0.0465 | 0.0338 | 0.0939 | 0.106 | 0.0351
8 | AAUAUAAAAUAAAGAAAAUUUAUAUCUGAUACCAGACUCUCAUGGGUCCCUUGGCAGCAGUAACAUGAGGAUCACCCAUGUAUUA [JR_Nu_SSTheophyA_Sub026] | 0.0677 |  | 0.0706 |  | 0.123
9 | AAUCGGACUCGUACAGCAUGUUGAGCGGAAGGAGCGGCGAAAGAGCCAGGUAGGUCGCCGCCGACAUGAGGAUCACCCAUGUACG [Orenti] | 0.0273 | 0.119 | 0.177 | 0.258 | 0.11
10 | AAUCGGAGAUGAAGGAGCGCGUACAUGAGGAUCACCCAUGUAUCAAAGCUUCUCCCGUGUAUGCAGGUAGGUCGCAUUUCCACGU [Ceriedan] | 0.0101 | 0.00912 | 0.013 | 0.00918 | 0.0099
11 | AAUCGGGAUGGUCAAGGGUAUGCUAUAGAUACCAGUGCAGAGAAACACCCUUGGCAGCUGUGGAACAUGAGGAUCACCCAUGUAG [Theo A Ex t4] | 0.0172 | 0.0112 | 0.0227 | 0.0173 | 0.0111
12 | AAUCGUAAGGCGGCCGCCACUACACAUGAGGAUCACCCAUGUCUCGCGGGCUUGCGUUGGGAUUGUAGGACCGGGCCAGUAAUAA [Exclusion - Tryptophan B (Freestyle 12)] | 0.0193 | 0.0264 | 0.0379 | 0.0235 | 0.0213
13 | AAUGUAUGGCACAUGAGGAUCACCCAUGUGCGAGGACCGGUACGGCCGCCACUCGGUCCUGGGAACUUAUUACUAUACAUUAAUG [XTryp A #18] | 0.0119 |  | 0.0169 | 0.0131 | 
14 | AAUGUAUUCCACAUGAGGAUCACCCAUGUGCGAGGACCGGUACGGCCGCCACUCGGUGUUGGGAUCUGUUCUGAAUACAUUAAUG [XTryp A #23] | 0.0308 |  | 0.0375 | 0.0403 | 
15 | AAUGUGAAGGCGGCCGCCACUGAUAAUAGACAUGAGGAUCACCCAUGUAUAAAUCCUCAAUAAGACAGGACCGGGCCAUCUACGU [#25 Exclusion Tryptophan B] | 0.059 |  | 0.134 | 0.122 | 
16 | AAUUAAUUAACCGAUACCAGCCAACCAAAACAUGAGGAUCACCCAUGUAAGAAGAAGGGUGGCCCUUGGCAGCGGUUAAUUAAUU | 0.0314 |  | 0.0167 |  | 0.0305
17 | AAUUAUCAGUCGGCCGCCACUGACACAUGAGGAUCACCCAUGUAACUUGGGAUAAAUUUAAUAAACAGGACCGGGACAAAGGCUA [JR_ExcTryptoB_Sub011] | 0.0366 |  | 0.0507 | 0.0499 | 
18 | AAUUAUUUCUCAAUUAUUUAAUCUUCAGAAGGAGCGUGAUGAUUCACAGGUAGGUCGCUGAUGACAUGAGGAUCACCCAUGUAUU [JR_SSArginiA_Sub003] | 0.0306 | 0.0301 | 0.0311 | 0.0291 | 0.0275
19 | AAUUCCGGGUCGGCCGCCACUGAUAUGGCGAGUCCUCGAACUUACAUGAGGAUCACCCAUGUAAACAGGACCGGGACCGCAUGGG [Exclusion Tryptophan B GF 23] | 0.0163 |  | 0.0284 | 0.0204 | 
20 | AAUUCCUAACAUGAGGAUCACCCAUGUGAAGGAGCGCGGAAUAACGCAGGUAGGUCGCACAUGGAACCGCUGCGAUAGCAGCAAA [MAT - Exclusion Arginine A - Mod of Eli - D29] | 0.00866 | 0.0144 | 0.0133 | 0.014 | 0.0125

Row | Sequence | apparent KD of MS2 coat protein (input ligand: arginine 13.2 mM) [µM] | apparent KD of MS2 coat protein (input ligand: none) [µM] | apparent KD of MS2 coat protein [1] [µM] | apparent KD of MS2 coat protein [2] [µM] | apparent KD of MS2 coat protein [3] [µM]
21 | AAUUUAAACGGAAGGAGCGUCACUUAAUAUCAACAUGAGGAUCACCCAUGUAAGGGUUGUAGACAGGUAGGUCGCCGUCAUUUGA [JR_AAArginiB_Sub023] | 0.0363 | 0.0392 | 0.0506 | 0.0419 | 0.0354
22 | AAUUUCGUAGGUAAAAGUUUAGAAACUGAAGGAGCGUGGUAUUACACAGGUAGGUCGCAGAUUUUACAUGAGGAUCACCCAUGUU [JR_SSArginiA_Sub008] | 0.0206 | 0.0221 | 0.022 | 0.0217 | 0.0228
23 | ACAAGAGGGAUGGAUACCAGCGACAUGAGGAUCACCCAUGUAUGAGGAUCAGCCAUGUUAUGCCCUUGGCAGCCACGAACAUCAG [SSAMULLIN] | 0.0275 | 0.0212 | 0.0308 | 0.125 | 0.0182
24 | ACAAGAGGUGGAAGGAGCGGGAGACAUGAGGAUCACCCAUGUGAAGUUUCGAGAGGAUCAUCCCAGGUAGGUCGCCAUGUCGAAA [ojjomullin] | 0.199 | 0.0417 | 0.0841 | 0.228 | 0.0497
25 | ACAAUAUUGAGUUUGUCUCAAGUUUCAGAAGGAGCGUGAGGAAUCACAGGUAGGUCGCUGAUAACAUGAGGAUCACCCAUGUAUU [JR_SSArginiA_Sub005] | 0.0261 | 0.0357 | 0.0431 | 0.0451 | 0.035
26 | ACACAAUACAUGAGGAUCACCCAUGUAAAACGAGGACCGGUACGGCCGCCACUCGAAUACAGGAAACCUCGGAAUAUUAAGUGAA [JR_ExcTryptA_Sub001] | 0.0269 |  | 0.0641 | 0.0958 | 
27 | ACACAUGACGCGGCCGCCACUGCAACAUGAGGAUCACCCAUGUCACCCAUGUAUGACAUGAGGAUCAGGACCGGGCGUGUGUGGA [Same State Tryptophan B 3] | 0.615 | 0.566 | 0.491 | 0.58 | 0.195
28 | ACACAUGAGGAUCACCCAUGUCCAAUAGAUACCAGUGAUACGGUGCACCCUUGGCAGCUGUUACUGAGUGAUGGUUCCCUCGGAA [Same State Theophylline A GF3] | 0.0481 |  | 0.0819 |  | 0.0587
29 | ACACAUGAGGAUCACCCAUGUGCGCUGGAAGGAGCGCAGAAUCAUGCAGGUAGGUCGCCAGUGCCCUCUACUAAAGGGAAAAGAG [Diatsoceri] | 0.0665 | 0.072 | 0.12 | 0.0929 | 0.0685
30 | ACACAUGAGGAUCACCCAUGUUGCAUAGAUACCAGAUAACGUGAGAUCCCUUGGCAGCUAACUGCAUGAACUUGACAUGCAUCAU [Same State Theophylline A 2] | 0.0442 |  | 0.0887 |  | 0.0535
31 | ACACAUGAGGAUCAUCCAUGUGCCCAUGAAGGAGCGUGGGAAACCACAGGUAGGUCGCAUGACAUGAGGAUCACCCAUGUUUAUU [#03 Exclusion - Arginine A] | 0.0666 | 0.204 | 0.203 | 0.366 | 0.209
32 | ACACGGGCAUGAGGAUCACCCAUGUAAUAACGAGGACCGGUACGGCCGCCACUCGUGCACCGUGACCUGUACGAAAAGUGCAGGA | 0.0136 | 0.0208 | 0.0265 | 0.0295 | 0.00998
33 | ACACGUGAGGAUCAUCCAUGUGCCCAUGAAGGAGCGUGGGAAACCACAGGUAGGUCGCAUGACAUGAGGAUCACCCAUGUUUAUU [#04 Exclusion - Arginine A] | 0.0431 | 0.0869 | 0.109 | 0.105 | 0.091
34 | ACAUCCAGGUUAAUCGUGGGCAUACUCGAUACCAGUAUUUUAAUCUACCCUUGGCAGCGACAUGAGGAUCACCCAUGUGCGAUGA [XTheo A #12] | 0.0117 |  | 0.0141 |  | 0.0134
35 | ACAUGAAGAACAGCGGUGGGCGCGCUCGAUACCAGUACUUUAAAAUACCCUUGGCAGCGACAUGAGGAUCACCCAUGUGAGAUGA [XTheo A #4] | 0.0153 |  | 0.0185 |  | 0.0185
36 | ACAUGAGGAUCACCCAUGUAAAUAACGGAAGGAGCGUGCGAAAGCACAGGUAGGUCGCCGAUAUAAAUAUUGGGUAUUAUAUUAU [#28 Exclusion - Arginine A] | 0.0178 | 0.0318 | 0.0471 | 0.0291 | 0.0288
37 | ACAUGAGGAUCACCCAUGUAAAUCCUCGAUACCAGCCAAAGGAGAGGCCCUUGGCAGCGGAAAGGCCGGGUAUAAAUGUCCGGCC | 0.0716 |  | 0.151 |  | 0.125
38 | ACAUGAGGAUCACCCAUGUAACAACGGGAAGGAGCGCCAAACAAGGCAGGUAGGUCGCCCACAUGAGGAUCACCCAUGUGUUGGG [Exclusion Arginine A GF 27] | 0.0307 | 0.03 | 0.0407 | 0.0391 | 0.0288
39 | ACAUGAGGAUCACCCAUGUAAUAAUCAGAAGGAGCGUGGAAUAACACAGGUAGGUCGCUGAUGUUUUGUUAAAAUUAUUCGUGAA [JR_SSArginiA_Sub002] | 0.0117 | 0.0135 | 0.0169 | 0.0129 | 0.0143
